Test results reported in publication PMC7801473 (2021).

Biological target: ASC^CARD (self-interaction; state of second copy not shown)
Assay: M2H (mammalian two-hybrid, luciferase)
Conditions: HEK293T cells; luciferase normalized to Renilla; parent: est. 4.2; read off a plot

Substance | response (fold of negative control)
ASC^CARD (M2H fusion) (from UniProt Q9ULZ3-1) R125A; T127A | 1.2
ASC^CARD (M2H fusion) (from UniProt Q9ULZ3-1) D134K | 1.4
ASC^CARD (M2H fusion) (from UniProt Q9ULZ3-1) D143A; E144A | 1.2
ASC^CARD (M2H fusion) (from UniProt Q9ULZ3-1) R160E | 1.2
ASC^CARD (M2H fusion) (from UniProt Q9ULZ3-1) W169G; N170A | 1.2

Now from value to substance:

response (fold of negative control) | Substance
1.3 | ASC^CARD (M2H fusion) (from UniProt Q9ULZ3-1) R119D
1.2 | ASC^CARD (M2H fusion) (from UniProt Q9ULZ3-1) N128A; E130R

Biological target: NLRP1^CARD (human) (UniProt Q9C000)
Assay: SEC-MALS; Superdex 200 10/30, 500 mM NaCl, 20 mM CHES-HCl pH 9.0, 500 uL at 0.5 mg/mL, 0.5 mL/min; monomer to dimer
Conditions: not given

stoichiometry N | Substance
2 | NLRP1^CARD (from UniProt Q9C000-1 1397-1462) (domain or fragment)

Biological target: MBP-ASC^CARD (human) (UniProt Q9ULZ3)
Sequence (Q9ULZ3 95-195): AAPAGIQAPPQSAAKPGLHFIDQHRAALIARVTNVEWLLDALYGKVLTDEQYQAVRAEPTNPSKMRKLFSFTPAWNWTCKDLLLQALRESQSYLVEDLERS
Assay: SEC; His-tagged MBP-ASC^CARD incubated with a threefold concentration of untagged NLRP1^CARD for 4 h, first purified by Ni-affinity chromatography, then Superdex gel filtration; complex in the void (~9 mL); also run at 0.15, 0.5 and 1.0 M NaCl (complex decreased with salt); ratio from gray scales of the PAGE gel
Conditions: not given

stoichiometry N (NLRP1^CARD : ASC^CARD) | Substance
0.5 | NLRP1^CARD (from UniProt Q9C000-1 1397-1462) (domain or fragment)
